Assay [1] has as its target ornithine decarboxylase (Homo sapiens) (UniProt P11926). In words: analytical ultracentrifugation. Particulars: cited from earlier work.
Assay [2] concerns the target antizyme inhibitor (Homo sapiens) (UniProt O14977). Description: analytical ultracentrifugation. The settings on record: cited from earlier work.
Assay [3] has as its target human cyclin D1 (CCND1) (human) (UniProt P24385). Description: AUC; sedimentation velocity of CCND1 alone at 0.05, 0.1 and 0.3 mg/ml, 30 mM Tris-HCl pH 7.4, 20°C; global fit (SEDPHAT) to monomer-dimer equilibrium; dimer to monomers.
Assay [4] concerns the target C-terminal AZ peptide AZ(100-228) (human) (UniProt P54368). Description: AUC; sedimentation velocity; AZ or AZ peptide at a fixed concentration, three concentrations of CCND1; 30 mM Tris-HCl pH 7.4, 50 mM NaCl; global fit (SEDPHAT) to A+B↔AB hetero-association.

Sequence of antizyme (P54368 whole entry): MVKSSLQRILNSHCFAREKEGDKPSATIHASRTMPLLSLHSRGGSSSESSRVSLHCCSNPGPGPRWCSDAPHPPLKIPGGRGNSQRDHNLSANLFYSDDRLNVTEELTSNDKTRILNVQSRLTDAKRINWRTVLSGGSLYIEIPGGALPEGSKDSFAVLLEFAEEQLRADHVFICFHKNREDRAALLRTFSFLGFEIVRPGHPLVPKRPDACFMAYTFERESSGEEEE
Sequence of human cyclin D1 (CCND1) (P24385 whole entry): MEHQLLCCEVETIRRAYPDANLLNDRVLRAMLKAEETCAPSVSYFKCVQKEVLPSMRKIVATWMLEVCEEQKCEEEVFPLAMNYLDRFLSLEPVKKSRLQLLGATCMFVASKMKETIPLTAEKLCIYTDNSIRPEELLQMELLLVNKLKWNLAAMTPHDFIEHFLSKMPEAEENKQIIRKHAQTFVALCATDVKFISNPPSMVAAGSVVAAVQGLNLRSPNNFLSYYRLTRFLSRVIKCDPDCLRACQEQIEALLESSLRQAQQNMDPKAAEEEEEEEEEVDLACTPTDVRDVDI
Sequence of C-terminal AZ peptide AZ(100-228) (human) (P54368 100-228): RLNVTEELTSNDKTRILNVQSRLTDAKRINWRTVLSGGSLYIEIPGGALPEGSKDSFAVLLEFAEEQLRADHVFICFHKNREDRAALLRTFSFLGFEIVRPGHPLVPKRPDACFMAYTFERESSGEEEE
Sequence of antizyme inhibitor (Homo sapiens) (O14977 whole entry): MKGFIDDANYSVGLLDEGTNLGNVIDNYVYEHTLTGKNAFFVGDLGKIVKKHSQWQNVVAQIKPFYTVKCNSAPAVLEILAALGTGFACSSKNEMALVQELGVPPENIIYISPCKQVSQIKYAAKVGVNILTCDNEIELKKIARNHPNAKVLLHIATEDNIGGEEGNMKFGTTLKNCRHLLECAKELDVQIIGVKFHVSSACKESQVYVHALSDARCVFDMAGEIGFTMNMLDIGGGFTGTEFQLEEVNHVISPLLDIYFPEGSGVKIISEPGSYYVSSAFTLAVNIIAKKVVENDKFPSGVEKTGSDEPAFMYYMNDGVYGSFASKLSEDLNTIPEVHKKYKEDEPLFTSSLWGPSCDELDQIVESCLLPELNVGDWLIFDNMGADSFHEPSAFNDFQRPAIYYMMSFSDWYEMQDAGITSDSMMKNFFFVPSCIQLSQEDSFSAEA
Sequence of ornithine decarboxylase (Homo sapiens) (P11926 whole entry): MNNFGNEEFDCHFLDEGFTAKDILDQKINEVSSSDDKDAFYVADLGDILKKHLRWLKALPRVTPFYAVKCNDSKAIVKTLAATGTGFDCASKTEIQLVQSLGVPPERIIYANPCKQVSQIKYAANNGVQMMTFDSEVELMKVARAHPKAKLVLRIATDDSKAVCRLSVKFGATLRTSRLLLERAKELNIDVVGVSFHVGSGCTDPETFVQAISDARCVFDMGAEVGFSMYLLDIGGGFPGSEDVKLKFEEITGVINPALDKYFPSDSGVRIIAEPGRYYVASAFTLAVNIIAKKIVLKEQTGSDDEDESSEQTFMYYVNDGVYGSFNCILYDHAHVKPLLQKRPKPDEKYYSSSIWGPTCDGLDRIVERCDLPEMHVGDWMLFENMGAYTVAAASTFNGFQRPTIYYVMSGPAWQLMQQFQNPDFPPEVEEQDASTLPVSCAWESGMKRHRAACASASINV

As usually defined, the Kd is the free concentration of one partner at which half of the binding sites on the other are occupied at equilibrium, for simple one-to-one binding. Take antizyme (from UniProt P54368): the Kd in assay [1] was 0.21 µM; in assay [2] it was 0.02 µM.

The term stoichiometry N denotes the number of molecules, sites or subunits per partner or assembly. Take “human cyclin D1 (CCND1) (from UniProt P24385 1-295) (natural protein; other documents disagree on this pair)”: in assay [3], the Kd turned out to be 3.84 µM and the stoichiometry N amounted to 2.

“human cyclin D1 (CCND1) (from UniProt P24385 1-295) (natural protein)”: the Kd in assay [4] turned out to be 14.1 µM.

The values above are taken from PMC4695161.
